Measurements published in patent publication US20200369737A1 (published 2020).

Legend:
Assay in all cases: sandwich ELISA; receptor ECD/Fc chimera captured on anti-Fc plates, biotin-labeled ligand titrated, streptavidin-HRP detection
[1] = molecular target: T1, recombinant human EGFR/Fc chimera (receptor extracellular domain/Fc chimera) (human, UniProt P00533 25-645)
T1 construct: extracellular domain; Bought from R&D Systems; Captured on plates coated with anti-Fc antibody; also called HER/Fc chimera-EGFR; HER1; not shown: Fc part (and any linker) of the purchased R&D Systems chimera

[2] = molecular target: T2, recombinant human HER3/Fc chimera (receptor extracellular domain/Fc chimera) (human, UniProt P21860 20-643)
T2 construct: extracellular domain; Bought from R&D Systems; Captured on plates coated with anti-Fc antibody; not shown: Fc part (and any linker) of the purchased R&D Systems chimera

[3] = molecular target: T3, recombinant human HER4/Fc chimera (receptor extracellular domain/Fc chimera) (human, UniProt Q15303 26-651)
T3 construct: extracellular domain; Bought from R&D Systems; Captured on plates coated with anti-Fc antibody; not shown: Fc part (and any linker) of the purchased R&D Systems chimera
T3 sequence (looked up): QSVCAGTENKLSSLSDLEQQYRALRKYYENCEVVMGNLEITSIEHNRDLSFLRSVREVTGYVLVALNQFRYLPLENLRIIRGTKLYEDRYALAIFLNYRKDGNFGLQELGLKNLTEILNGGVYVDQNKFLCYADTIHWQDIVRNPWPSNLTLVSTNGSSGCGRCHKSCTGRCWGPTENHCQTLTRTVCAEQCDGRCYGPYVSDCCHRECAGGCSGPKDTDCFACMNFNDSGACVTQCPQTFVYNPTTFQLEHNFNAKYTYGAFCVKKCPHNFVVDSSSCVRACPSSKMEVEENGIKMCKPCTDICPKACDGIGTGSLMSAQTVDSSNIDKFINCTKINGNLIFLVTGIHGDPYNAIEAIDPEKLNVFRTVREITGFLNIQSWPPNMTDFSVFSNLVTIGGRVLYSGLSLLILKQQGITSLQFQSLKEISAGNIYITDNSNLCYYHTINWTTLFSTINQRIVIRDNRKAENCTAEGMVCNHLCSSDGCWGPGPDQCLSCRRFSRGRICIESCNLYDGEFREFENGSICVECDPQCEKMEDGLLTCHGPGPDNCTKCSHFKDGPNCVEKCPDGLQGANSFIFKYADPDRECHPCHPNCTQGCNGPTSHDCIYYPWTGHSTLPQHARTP

T2 sequence (P21860 20-643, change not shown): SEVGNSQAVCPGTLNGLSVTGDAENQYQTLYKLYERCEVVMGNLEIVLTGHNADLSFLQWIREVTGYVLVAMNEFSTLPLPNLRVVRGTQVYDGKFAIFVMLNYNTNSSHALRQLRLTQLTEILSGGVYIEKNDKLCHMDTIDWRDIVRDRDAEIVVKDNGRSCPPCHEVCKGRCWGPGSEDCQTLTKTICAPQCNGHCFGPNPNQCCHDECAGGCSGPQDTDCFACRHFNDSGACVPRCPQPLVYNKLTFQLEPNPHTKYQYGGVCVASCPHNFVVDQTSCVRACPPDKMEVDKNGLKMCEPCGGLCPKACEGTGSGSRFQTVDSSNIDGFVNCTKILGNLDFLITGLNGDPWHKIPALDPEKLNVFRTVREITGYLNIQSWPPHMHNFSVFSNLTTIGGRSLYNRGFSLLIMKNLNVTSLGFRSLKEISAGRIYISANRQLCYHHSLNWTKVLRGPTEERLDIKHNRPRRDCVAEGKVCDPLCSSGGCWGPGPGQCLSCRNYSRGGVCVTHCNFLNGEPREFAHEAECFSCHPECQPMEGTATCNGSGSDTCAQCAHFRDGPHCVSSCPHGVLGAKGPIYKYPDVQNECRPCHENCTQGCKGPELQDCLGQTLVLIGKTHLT

B1: Pan-HER DNL B5-3M2 tagged with biotin (ligand)
chain: NSDSECPLSHDGYCLNDGVCMYTEAKDEYACNCVVGYIGERCQYYDLL
modifications: not fully specified; biotin label; paragraph 113 says derivatized at the N-terminus; paragraph 97 says B5-3M2 has two sites for biotinylation, the N terminus and K26
notes: Made in E. coli; also called tagged (biotinylated) DNL; EGF1-48 H16N, I23T, L26K, K28E, R45Y, K48L
A Kd [1] of 5 nM, a Kd [2] of 6 nM and a Kd [3] of 4 nM were found for B1 in this work.
